B1: GCH098-G1dh/none-Hi-Kn010G3/L0000-k0 (antibody, human IgG1, kappa)
heavy: not shown
chain: EPKSSDKTHTCPPCPAPELLGGPSVFLFPPKPKDTLMISRTPEVTCVVVDVSHEDPEVKFNWYVDGVEVHNAKTKPREEQYNSTYRVVSVLTVLHQDWLNGKEYKCKVSNKALPAPIEKTISKAKGQPREPQVCTLPPSRDELTKNQVSLWCLVKGFYPSDIAVEWESNGQPENNYKTTPPVLDSDGSFFLYSKLTVDKSRWQQGNVFSCSVMHEALHNRYTQKSLSLSP
light: DIVMTQSPLSLPVTPGEPASISCRSSQSLVHSNRNTYLHWYQQKPGQAPRLLIYKVSNRFSGVPDRFSGSGSGTDFTLKISRVEAEDVGVYYCGQGTQVPYTFGQGTKLEIKRTVAAPSVFIFPPSDEQLKSGTASVVCLLNNFYPREAKVQWKVDNALQSGNSQESVTEQDSKDSTYSLSSTLTLSKADYEKHKVYACEVTHQGLSSPVTKSFNRGEC
notes: single-arm (one Fab)
B2: GCH098-G1dh/none-Hi-Kn010G3/L0011-k0 (antibody, human IgG1, kappa)
heavy: not shown
chain: EPKSSDKTHTCPPCPAPELLGGPSVFLFPPKPKDTLMISRTPEVTCVVVDVSHEDPEVKFNWYVDGVEVHNAKTKPREEQYNSTYRVVSVLTVLHQDWLNGKEYKCKVSNKALPAPIEKTISKAKGQPREPQVCTLPPSRDELTKNQVSLWCLVKGFYPSDIAVEWESNGQPENNYKTTPPVLDSDGSFFLYSKLTVDKSRWQQGNVFSCSVMHEALHNRYTQKSLSLSP
light: DIVMTQSPLSLPVTPGEPASISCRSSQPLVHSNRNTYLHWYQQKPGQAPRLLIYKVSNRFSGVPDRFSGSGSGTDFTLKISRVEAEDVGVYYCGQGTQVPYTFGQGTKLEIKRTVAAPSVFIFPPSDEQLKSGTASVVCLLNNFYPREAKVQWKVDNALQSGNSQESVTEQDSKDSTYSLSSTLTLSKADYEKHKVYACEVTHQGLSSPVTKSFNRGEC
notes: single-arm (one Fab)
B3: GCH099-G1dh/none-Hi-Kn010G3/L0000-k0 (antibody, human IgG1, kappa)
heavy: not shown
chain: EPKSSDKTHTCPPCPAPELLGGPSVFLFPPKPKDTLMISRTPEVTCVVVDVSHEDPEVKFNWYVDGVEVHNAKTKPREEQYNSTYRVVSVLTVLHQDWLNGKEYKCKVSNKALPAPIEKTISKAKGQPREPQVCTLPPSRDELTKNQVSLWCLVKGFYPSDIAVEWESNGQPENNYKTTPPVLDSDGSFFLYSKLTVDKSRWQQGNVFSCSVMHEALHNRYTQKSLSLSP
light: DIVMTQSPLSLPVTPGEPASISCRSSQSLVHSNRNTYLHWYQQKPGQAPRLLIYKVSNRFSGVPDRFSGSGSGTDFTLKISRVEAEDVGVYYCGQGTQVPYTFGQGTKLEIKRTVAAPSVFIFPPSDEQLKSGTASVVCLLNNFYPREAKVQWKVDNALQSGNSQESVTEQDSKDSTYSLSSTLTLSKADYEKHKVYACEVTHQGLSSPVTKSFNRGEC
notes: single-arm (one Fab); printed with a small k in Hi-kn010G3
B4: GCH099-G1dh/none-Hi-Kn010G3/L0011-k0 (antibody, human IgG1, kappa)
heavy: not shown
chain: EPKSSDKTHTCPPCPAPELLGGPSVFLFPPKPKDTLMISRTPEVTCVVVDVSHEDPEVKFNWYVDGVEVHNAKTKPREEQYNSTYRVVSVLTVLHQDWLNGKEYKCKVSNKALPAPIEKTISKAKGQPREPQVCTLPPSRDELTKNQVSLWCLVKGFYPSDIAVEWESNGQPENNYKTTPPVLDSDGSFFLYSKLTVDKSRWQQGNVFSCSVMHEALHNRYTQKSLSLSP
light: DIVMTQSPLSLPVTPGEPASISCRSSQPLVHSNRNTYLHWYQQKPGQAPRLLIYKVSNRFSGVPDRFSGSGSGTDFTLKISRVEAEDVGVYYCGQGTQVPYTFGQGTKLEIKRTVAAPSVFIFPPSDEQLKSGTASVVCLLNNFYPREAKVQWKVDNALQSGNSQESVTEQDSKDSTYSLSSTLTLSKADYEKHKVYACEVTHQGLSSPVTKSFNRGEC
notes: single-arm (one Fab)
B5: GCH098-G1dh/none-Hi-Kn010G3/L0201-k0 (antibody, human IgG1, kappa)
heavy: not shown
chain: EPKSSDKTHTCPPCPAPELLGGPSVFLFPPKPKDTLMISRTPEVTCVVVDVSHEDPEVKFNWYVDGVEVHNAKTKPREEQYNSTYRVVSVLTVLHQDWLNGKEYKCKVSNKALPAPIEKTISKAKGQPREPQVCTLPPSRDELTKNQVSLWCLVKGFYPSDIAVEWESNGQPENNYKTTPPVLDSDGSFFLYSKLTVDKSRWQQGNVFSCSVMHEALHNRYTQKSLSLSP
light: DIVMTQSPLSLPVTPGEPASISCRSSQPPVHSNRNTYLHWYQQKPGQAPRLLIYKVSNRFSGVPDRFSGSGSGTDFTLKISRVEAEDVGVYYCGQGTQVPYTFGQGTKLEIKRTVAAPSVFIFPPSDEQLKSGTASVVCLLNNFYPREAKVQWKVDNALQSGNSQESVTEQDSKDSTYSLSSTLTLSKADYEKHKVYACEVTHQGLSSPVTKSFNRGEC
notes: single-arm (one Fab)

target: T1, soluble human GPC3 (human, UniProt P51654 25-563, limits assumed); test: SPR (Biacore), soluble human GPC3
T1 construct: soluble human GPC3 as analyte; also called glypican 3
T1 sequence (P51654 other isoform, or with tags, fused parts or gaps limits assumed, form in doubt): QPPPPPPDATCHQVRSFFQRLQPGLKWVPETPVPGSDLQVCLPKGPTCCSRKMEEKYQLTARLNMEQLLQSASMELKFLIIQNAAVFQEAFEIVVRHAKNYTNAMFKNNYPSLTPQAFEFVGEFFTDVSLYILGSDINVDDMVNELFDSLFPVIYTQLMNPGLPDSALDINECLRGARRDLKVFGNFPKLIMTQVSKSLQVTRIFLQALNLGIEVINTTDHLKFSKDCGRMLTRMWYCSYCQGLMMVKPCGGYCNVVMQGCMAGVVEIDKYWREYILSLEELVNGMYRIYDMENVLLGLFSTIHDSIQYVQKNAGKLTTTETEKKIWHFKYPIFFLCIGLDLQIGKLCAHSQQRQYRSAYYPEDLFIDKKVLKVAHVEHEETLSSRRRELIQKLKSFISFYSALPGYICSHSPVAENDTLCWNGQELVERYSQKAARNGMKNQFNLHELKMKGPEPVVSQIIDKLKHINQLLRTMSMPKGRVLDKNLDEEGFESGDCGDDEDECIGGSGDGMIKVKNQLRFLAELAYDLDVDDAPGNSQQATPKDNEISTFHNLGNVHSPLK

| Binder | Kd |
| --- | --- |
| B1 | 1.77 nM |
| B2 | 0.802 nM |
| B3 | 4.24 nM |
| B4 | 2.78 nM |
| B5 | 0.111 nM |
